Laboratory results: publication PMC10406883

B1: 4F2hc (CD98hc): N365Q (protein)
parent chain: MELQPPEASIAVVSIPRQLPGSHSEAGVQGLSAGDDSELGSHCVAQTGLELLASGDPLPSASQNAEMIETGSDCVTQAGLQLLASSDPPALASKNAEVTGTMSQDTEVDMKEVELNELEPEKQPMNAASGAAMSLAGAEKNGLVKIKVAEDEAEAAAAAKFTGLSKEELLKVAGSPGWVRTRWALLLLFWLGWLGMLAGAVVIIVRAPRCRELPAQKWWHTGALYRIGDLQAFQGHGAGNLAGLKGRLDYLSSLKVKGLVLGPIHKNQKDDVAQTDLLQIDPNFGSKEDFDSLLQSAKKKSIRVILDLTPNYRGENSWFSTQVDTVATKVKDALEFWLQAGVDGFQVRDIENLKDASSFLAEWQNITKGFSEDRLLIAGTNSSDLQQILSLLESNKDLLLTSSYLSDSGSTGEHTKSLVTQYLNATGNRWCSWSLSQARLLTSFLPAQLLRLYQLMLFTLPGTPVFSYGDEIGLDAAALPGQPMEAPVMLWDESSFPDIPGAVSANMTVKGQSEDPGSLLSLFRRLSDQRSKERSLLHGDFHAFSAGPGLFSYIRHWDQNERFLVVLNFGDVGLSAGLQASDLPASASLPAKADLLLSTQPGREEGSPLELERLKLEPHEGLLLRFPYAA
B2: 4F2hc (CD98hc): 4NQ (protein)
parent chain: B1 parent chain
B3: 4F2hc (CD98hc): PNGase F (protein)
parent chain: B1 parent chain
B4: 4F2hc (CD98hc): 122-311del B3GNT3 (protein)
parent chain: B1 parent chain
B5: 4F2hc (CD98hc): B3GNT3KO (protein)
parent chain: B1 parent chain
B6: 4F2hc (CD98hc): tunicamycin (TM) (protein)
parent chain: B1 parent chain

Experiments:
[1] = Confocal: 4F2hc membrane expression, colocalization with xCT; details: glycan lost; control: WT 4F2hc reconstitution
[2] = CHX chase, 4F2hc remaining by western blot
[3] = Flow cytometry, shSLC3A2 MIA PaCa-2; details: glycan lost; control: WT 4F2hc reconstitution in shSLC3A2 MIA PaCa-2
[4] = Western blot, shSLC3A2 PANC-1; details: glycan lost
[5] = Confocal and flow cytometry, PANC-1; details: glycan lost; control: no PNGase F
[6] = Western blot, PANC-1, BxPC-3, MIA PaCa-2; details: glycan changed form; control: Cas9Control cells
[7] = Confocal: membrane colocalization of 4F2hc and xCT; details: glycan lost; control: no tunicamycin

| Protein | localisation_or_trafficking [1] | degradation_or_half_life ([2]; glycan lost) | other: membrane expression of partner xCT [3] | other: protein levels of xCT, GPX4, B3GNT3 [4] | also measured |
| --- | --- | --- | --- | --- | --- |
| B1 | decreases | decreases | decreases | decreases |  |
| B2 | decreases | decreases | decreases | decreases |  |
| B3 |  |  |  |  | localisation_or_trafficking [5]: abolishes |
| B4 |  |  |  |  | degradation_or_half_life ([2]; glycan changed form, control: 122-311OE (active B3GNT3) in B3GNT3KO cells): decreases |
| B5 |  |  |  |  | degradation_or_half_life ([2]; glycan changed form, control: Cas9Control cells): decreases; expression_or_secretion [6]: increases |
| B6 |  |  |  |  | degradation_or_half_life ([2]; glycan lost, control: no tunicamycin): decreases; localisation_or_trafficking [7]: decreases |
